We go through 1 substance from publication PMC11082957.

The target of assay [1] is α-synuclein (α-syn) (UniProt P37840). The experiment in a line: ThT fluorescence of agitation-induced self-aggregation. To be noted: reference: α-syn not treated with PLK3; sites S129.
Assay [2] shares this target. The experiment in a line: ThT fluorescence of ONE-induced self-aggregation. As to conditions: reference: α-syn not treated with PLK3; sites S129.

As to “α-synuclein (α-syn) (from UniProt P37840) PLK3-phosphorylated α-syn (p-α-syn)”, the fold change entry in assay [1] and in assay [2] was “stronger; reference 1” each time.
